As a reminder, the stoichiometry N is the number of molecules, sites or subunits per partner or assembly.

The assay addresses DesC, NADH-dependent 20α-hydroxysteroid dehydrogenase of Clostridium scindens ATCC 35704 (Clostridium scindens ATCC 35704). As to the kind of experiment: crystal structure.

Regarding “DesC, NADH-dependent 20α-hydroxysteroid dehydrogenase of Clostridium scindens ATCC 35704 (enzyme)”, the stoichiometry N amounted to 4.
